The target of test [1] is T1, α-synuclein (human, UniProt P37840 1-140). Kind of test: SPR. (In general: In SPR one partner is held on a chip, and binding of the other changes the refractive index at the surface.)
In test [2] the target is T1, α-synuclein. Kind of test: SPR. This is another data set of the same source.

From article PMC7355856 (2020) come the findings set out here.

B1: prolyl oligopeptidase (POP) (enzyme)
chain: MLSLQYPDVYRDETAVQDYHGHKICDPYAWLEDPDSEQTKAFVEAQNKITVPFLEQCPIRGLYKERMTELYDYPKYSCHFKKGKRYFYFYNTGLQNQRVLYVQDSLEGEARVFLDPNILSDDGTVALRGYAFSEDGEYFAYGLSASGSDWVTIKFMKVDGAKELPDVLERVKFSCMAWTHDGKGMFYNSYPQQDGKSDGTETSTNLHQKLYYHVLGTDQSEDILCAEFPDEPKWMGGAELSDDGRYVLLSIREGCDPVNRLWYCDLQQESSGIAGILKWVKLIDNFEGEYDYVTNEGTVFTFKTNRQSPNYRVINIDFRDPEESKWKVLVPEHEKDVLEWIACVRSNFLVLCYLHDVKNILQLHDLTTGALLKTFPLDVGSIVGYSGQKKDTEIFYQFTSFLSPGIIYHCDLTKEELEPRVFREVTVKGIDASDYQTVQIFYPSKDGTKIPMFIVHKKGIKLDGSHPAFLYGYGGFNISITPNYSVSRLIFVRHMGGILAVANIRGGGEYGETWHKGGILANKQNCFDDFQCAAEYLIKEGYTSPKRLTINGGSNGGLLVAACANQRPDLFGCVIAQVGVMDMLKFHKYTIGHAWTTDYGCSDSKQHFEWLVKYSPLHNVKLPEADDIQYPSMLLLTADHDDRVVPLHSLKFIATLQYIVGRSRKQSNPLLIHVDTKAGHGAGKPTAKVIEEVSDMFAFIARCLNVDWIP
B1: the off-rate (koff) (in general, the first-order rate constant of dissociation) with α-synuclein [1] stood at 0.00118 s⁻¹. In the test with α-synuclein [2], the equilibrium dissociation constant (Kd) (in general, the equilibrium constant for the complex coming apart) came to 5.32 nM.
